Results as given in patent publication US20220143089A1.

Columns and labels:
[1] = molecular target: DR5-41BB fusion protein (SEQ ID NO: 4); assay: cell-based or functional assay
[2] = molecular target: DR5-41BB fusion protein (SEQ ID NO: 4); assay: flow cytometry, Jurkat T cells transfected with DR5-41BB; DR5-41BB specific signal after mock is set to MFI=0
[3] = molecular target: DR5-41BB fusion protein (SEQ ID NO: 4); assay: flow cytometry, primary expanded NK cells electroporated with DR5-41BB mRNA; signal is endogenous DR5 plus DR5-41BB
[4] = molecular target: DR5-41BB fusion protein (SEQ ID NO: 4); assay: flow cytometry, primary expanded NK cells electroporated with DR5-41BB mRNA; 608 minus 208
[5] = molecular target: DR5-41BB fusion protein (SEQ ID NO: 4); assay: flow cytometry, Jurkat T cells transfected with DR5-41BB; signal is endogenous DR5 plus DR5-41BB
[6] = molecular target: TRAIL death receptor 5 (DR5) (UniProt O14763); assay: flow cytometry, mock electroporated Jurkat T cells (endogenous DR5)
[7] = molecular target: TRAIL death receptor 5 (DR5) (UniProt O14763); assay: flow cytometry, Jurkat T cells stained with anti-DR5 (FMO control 1.29%)
[8] = molecular target: TRAIL death receptor 5 (DR5) (UniProt O14763); assay: flow cytometry, mock electroporated primary expanded NK cells (endogenous DR5)

Sequence of DR5-41BB fusion protein (SEQ ID NO: 4) (chain, as listed by the source limits assumed): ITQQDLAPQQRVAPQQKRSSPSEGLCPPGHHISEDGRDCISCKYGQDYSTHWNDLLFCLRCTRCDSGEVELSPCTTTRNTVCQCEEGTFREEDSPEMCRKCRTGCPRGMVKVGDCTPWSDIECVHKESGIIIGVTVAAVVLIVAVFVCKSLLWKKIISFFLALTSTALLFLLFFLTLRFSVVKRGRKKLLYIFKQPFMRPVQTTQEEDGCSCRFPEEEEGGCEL

mean MFI (mock background subtracted) [2] [MFI] | mean MFI [3] [MFI] | mean MFI (mock background subtracted) [4] [MFI] | mean MFI [5] [MFI] | Substance | cell death in T cells (Propidium Iodide, flow cytometry, 16 hours, 100 ng/ml TRAIL) [1] [%] | mean MFI [6] [MFI] | percent of cells stained [7] [%] | mean MFI [8] [MFI]
– | – | – | – | soluble TRAIL ligand (from UniProt P50591 114-281) | 15 | – | – | –
1380 | 608 | 400 | 2070 | anti-DR5 antibody (Clone: DJR2-4, Source: Biolegend, Cat: 307406) | – | 698 | 86.8 | 208
